The target in this assay is CLS (C-terminal fragment of human L-selectin with its entire transmembrane and cytoplasmic domains) (human). Nature of the assay: AUC.

For “CLS (C-terminal fragment of human L-selectin with its entire transmembrane and cytoplasmic domains) (domain or fragment)”, the pKd (molar fraction units) worked out at 1.49.

The values are drawn from article PMC3078985.
